# Test results from PMC3148273.
# B1: sphingosine kinase 2 (SK2) (Homo sapiens) (protein)
# chain: MNGHLEAEEQQDQRPDQELTGSWGHGPRSTLVRAKAMAPPPPPLAASTPLLHGEFGSYPARGPRFALTLTSQALHIQRLRPKPEARPRGGLVPLAEVSGCCTLRSRSPSDSAAYFCIYTYPRGRRGARRRATRTFRADGAATYEENRAEAQRWATALTCLLRGLPLPGDGEITPDLLPRPPRLLLLVNPFGGRGLAWQWCKNHVLPMISEAGLSFNLIQTERQNHARELVQGLSLSEWDGIVTVSGDGLLHEVLNGLLDRPDWEEAVKMPVGILPCGSGNALAGAVNQHGGFEPALGLDLLLNCSLLLCRGGGHPLDLLSVTLASGSRCFSFLSVAWGFVSDVDIQSERFRALGSARFTLGTVLGLATLHTYRGRLSYLPATVEPASPTPAHSLPRAKSELTLTPDPAPPMAHSPLHRSVSDLPLPLPQPALASPGSPEPLPILSLNGGGPELAGDWGGAGDAPLSPDPLLSSPPGSPKAALHSPVSEGAPVIPPSSGLPLPTPDARVGASTCGPPDHLLPPLGTPLPPDWVTLEGDFVLMLAISPSHLGADLVAAPHARFDDGLVHLCWVRSGISRAALLRLFLAMERGSHFSLGCPQLGYAAARAFRLEPLTPRGVLTVDGEQVEYGPLQAQMHPGIGTLLTGPPGCPGREP
# Substrate: CCCCCCCCCCCCC/C=C/[C@@H](O)[C@@H](N)CO
# Assay: purified SK2 Michaelis-Menten kinetics with [γ-32P]ATP
# Format: biochemical, Homo sapiens
# Conditions: Mg2+
protein,measurement,value
B1,Km,10.5 µM
